In publication PMC6884549, “Alkyladenine DNA glycosylase associates with transcription elongation to coordinate DNA repair with gene expression” (Nature Communications, 2019):

B1: FLAG-tagged ELP1, purified recombinant (natural protein, human, UniProt O95163 1-1332, looked up)
chain: MRNLKLFRTLEFRDIQGPGNPQCFSLRTEQGTVLIGSEHGLIEVDPVSREVKNEVSLVAEGFLPEDGSGRIVGVQDLLDQESVCVATASGDVILCSLSTQQLECVGSVASGISVMSWSPDQELVLLATGQQTLIMMTKDFEPILEQQIHQDDFGESKFITVGWGRKETQFHGSEGRQAAFQMQMHESALPWDDHRPQVTWRGDGQFFAVSVVCPETGARKVRVWNREFALQSTSEPVAGLGPALAWKPSGSLIASTQDKPNQQDIVFFEKNGLLHGHFTLPFLKDEVKVNDLLWNADSSVLAVWLEDLQREESSIPKTCVQLWTVGNYHWYLKQSLSFSTCGKSKIVSLMWDPVTPYRLHVLCQGWHYLAYDWHWTTDRSVGDNSSDLSNVAVIDGNRVLVTVFRQTVVPPPMCTYQLLFPHPVNQVTFLAHPQKSNDLAVLDASNQISVYKCGDCPSADPTVKLGAVGGSGFKVCLRTPHLEKRYKIQFENNEDQDVNPLKLGLLTWIEEDVFLAVSHSEFSPRSVIHHLTAASSEMDEEHGQLNVSSSAAVDGVIISLCCNSKTKSVVLQLADGQIFKYLWESPSLAIKPWKNSGGFPVRFPYPCTQTELAMIGEEECVLGLTDRCRFFINDIEVASNITSFAVYDEFLLLTTHSHTCQCFCLRDASFKTLQAGLSSNHVSHGEVLRKVERGSRIVTVVPQDTKLVLQMPRGNLEVVHHRALVLAQIRKWLDKLMFKEAFECMRKLRINLNLIYDHNPKVFLGNVETFIKQIDSVNHINLFFTELKEEDVTKTMYPAPVTSSVYLSRDPDGNKIDLVCDAMRAVMESINPHKYCLSILTSHVKKTTPELEIVLQKVHELQGNAPSDPDAVSAEEALKYLLHLVDVNELYDHSLGTYDFDLVLMVAEKSQKDPKEYLPFLNTLKKMETNYQRFTIDKYLKRYEKAIGHLSKCGPEYFPECLNLIKDKNLYNEALKLYSPSSQQYQDISIAYGEHLMQEHMYEPAGLMFARCGAHEKALSAFLTCGNWKQALCVAAQLNFTKDQLVGLGRTLAGKLVEQRKHIDAAMVLEECAQDYEEAVLLLLEGAAWEEALRLVYKYNRLDIIETNVKPSILEAQKNYMAFLDSQTATFSRHKKRLLVVRELKEQAQQAGLDDEVPHGQESDLFSETSSVVSGSEMSGKYSHSNSRISARSSKNRRKAERKKHSLKEGSPLEDLALLEALSEVVQNTENLKDEVYHILKVLFLFEFDEQGRELQKAFEDTLQLMERSLPEIWTLTYQQNSATPVLGPNSTANSIMASYQQQKTSVPVLDAELFIPPKINRRTQWKLSLLD
notes: ELP1 (IKBKAP), cDNA excised from pCMV6-XL5-ELP1 (OriGene) and inserted into pcDNA3.1(+)-3xFLAG; Seen as a dimer after BS3 cross-linking; Purified in one step from human cells, so other Elongator subunits might be present (my surmise); also called FLAG-ELP1; ELP1 dimer

Columns and labels:
[1] = molecular target: B1; experiment: co-IP; purified proteins: 1 µg of protein with 1 µg of antibody overnight at 4 °C in 200 µl IP buffer (20 mM HEPES pH 7.9, 140 mM NaCl, 0.01% NP-40), Protein-A sepharose beads, immunoblot; settings: both partners purified
[2] = molecular target: the molecule itself; experiment: cross-linking; 10 µM of purified proteins in 0.1 M sodium phosphate, 0.15 M NaCl, pH 7.4, 30 min at RT; BS3 at 0, 0.1 and 0.5 mM for 1 h at 4 °C; gel shift read by immunoblot; single proteins with the highest amount of BS3 as controls

Row | binding result [1] | Binder | stoichiometry N [2]
1 | binds | AAG lacking 80 N-terminal amino acids, purified recombinant (domain or fragment, human, UniProt P29372 81-298, looked up, Alkyladenine DNA glycosylase (AAG, MPG), human, lacking the first 80 N-terminal amino acids; also called Δ80 AAG; ∆80AAG) GHLTRLGLEFFDQPAVPLARAFLGQVLVRRLPNGTELRGRIVETEAYLGPEDEAAHSRGGRQTPRNRGMFMKPGTLYVYIIYGMYFCMNISSQGDGACVLLRALEPLEGLETMRQLRSTLRKGTASRVLKDRELCSGPSKLCQALAINKSFDQRDLAQDEAVWLERGPLEPSEPAVVAAARVGVGHAGEWARKPLRFYVRGSPWVSVVDRVAEQDTQA | 
2 |  | B1 | 2
